Assay [1] deals with T1, GST-MPP8 (MPP8 chromodomain) (Homo sapiens, UniProt Q99549).
T1 sequence (Q99549 50-120): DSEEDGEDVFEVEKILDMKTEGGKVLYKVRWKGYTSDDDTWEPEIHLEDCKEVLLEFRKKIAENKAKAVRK
The assay can be described thus: AlphaScreen competitive binding, GST-MPP8/b-H3K9me3. (In Alpha technology, singlet oxygen from a donor bead excites a nearby acceptor bead.)

For assay [2], the target named is Human M-phase phosphoprotein chromodomain-containing region (amino acids 50–120) with N-terminal GST tag (human) (UniProt Q99549). In words: AlphaScreen or HTRF.
Assay [3] has as its target Mouse heterochromatin protein 1-beta chromodomain-containing region (amino acids 1–185) with N-terminal GST tag (mouse) (UniProt P83917). In words: AlphaScreen or HTRF.

Sequence of Mouse heterochromatin protein 1-beta chromodomain-containing region (amino acids 1–185) with N-terminal GST tag (mouse) (P83917 whole entry, the tested form may be a part): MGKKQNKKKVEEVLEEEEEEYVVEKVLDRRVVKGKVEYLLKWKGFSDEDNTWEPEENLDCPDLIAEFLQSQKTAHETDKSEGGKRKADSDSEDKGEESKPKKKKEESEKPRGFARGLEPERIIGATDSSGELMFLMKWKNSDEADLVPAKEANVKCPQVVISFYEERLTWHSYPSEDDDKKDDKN

As to `C[C@H](N)C(=O)N[C@@H](CCCNC(=N)N)C(=O)N[C@H](C(=O)N[C@@H](CCCCN)C(=O)N[C@@H](CCC(N)=O)C(=O)N[C@H](C(=O)N[C@@H](C)C(=O)N[C@@H](CCCNC(=N)N)C(=O)N[C@@H](CCCCN)C(=O)N[C@@H](CO)C(=O)N[C@H](C(=O)NCC(=O)NCC(=O)N[C@@H](CCCCN)C(=O)N[C@@H](C)C(=O)N1CCC[C@H]1C(=O)N[C@@H](CCCNC(=N)N)C(=O)N[C@@H](CCCCN)C(=O)O)[C@@H](C)O)[C@@H](C)O)[C@@H](C)O` [Peptide H3], in assay [1], the concentration giving a half-maximal response (EC50) (usually the concentration that produces a half-maximal response) was found to be 160 µM. On to “biotinylated histone H3 peptide trimethylated at Lys9”, for which the fold AlphaScreen signal over b-H3K4me3 was determined as 1.7 fold in assay [2] and 3.3 fold in assay [3]. For “biotinylated histone H3 peptide trimethylated at Lys4”, the results for the AlphaScreen signal in assay [2] and in assay [3] were 26000 c.p.s and 7800 c.p.s, respectively.

The values are drawn from paper PMC2811012 (Nucleic Acids Research, 2009).
